Experiments:
Format in all cases: biochemical, Caldanaerobius polysaccharolyticus
[1] = substrate: OC[C@H]1O[C@@H](O[C@H]2[C@H](O)[C@H](O)[C@H](O[C@H]3[C@H](O)[C@H](O)[C@H](O[C@H]4[C@H](O)[C@H](O)[C@H](O[C@H]5[C@H](O)[C@H](O)C(O)O[C@@H]5CO)O[C@@H]4CO)O[C@@H]3CO)O[C@@H]2CO)[C@@H](O)[C@@H](O)[C@@H]1O; experiment: Catalytic efficiency with oligosaccharides, HPAEC (Man5A-TM2); conditions: other: Man5A-TM2 0.3 μM, oligosaccharide 30 μM, citrate buffer 50 mM, pH 5.5, 5 min, triplicate
Protocol: (§1) Cloning, expression, and purification of Man5A-TM1, Man5A-TM2 and Man5B. C. polysaccharolyticus was cultured in TYG medium and DNA was isolated from mid-log cultures and purified using the Qiagen DNeasy Blood and Tissue kit with an integrated RNase treatment step. The genome of C. polysaccharolyticus was partially sequenced by the W. M. Keck Biotechnology Center at the University of Illinois at Urbana-Champaign. A Newbler assembly was generated which is comprised of ½ plate of FLX PE 454 data and ½ plate of 8 kb paired-end GSFLX Titanium data using a Genome Sequencer instrument from 454 Life Sciences (Branford, Conn.). The partial genome sequence was uploaded onto the Rapid Annotation using Subsystem Technology (RAST) server (Aziz et al., BMC Genomics, 9:75, 2008). Auto-annotation of the C. polysaccharolyticus partial genome sequence identified ORF0760 as a gene predicted to encode a bifunctional β-D-mannanase/endoglucanase (Man5B). Man5A was previously identified in a recombinant phage library of C. polysaccharolyticus genomic DNA, which was screened for endoglucanase activity (Cann et al., J Bacteriol, 181:1643, 1999) and the full sequence of this gene was also identified in the partial genome sequence for C. polysaccharolyticus.
(§2) The DNA sequence corresponding to man5B was amplified by the PicoMaxx high fidelity PCR kit using genomic DNA as the template with the primer set Man5B-Forward and Man5B-Reverse (Table 1-1). The primers were engineered to incorporate a 5′-[…] (SEQ ID NO: 54) extension in Man5B-F and a 5′-[…] (SEQ ID NO: 55) extension in Man5B-R, which facilitated subsequent directional cloning. The resultant man5B amplicon was then digested with T4 DNA polymerase exonuclease activity, annealed with a similarly digested pET-46b vector and introduced into E. coli JM109 by electroporation. Man5A-TM1 was amplified using genomic DNA as template with primers Man5A-TM1-F and Man5A-TM1-R (Table 1-1). The primer sets for Man5A-TM1 and Man5A-TM2 were designed to include 5′-NdeI and 3′-XhoI restriction sites for subsequent directional cloning. The resulting amplicons were then cloned into the pGEM-T vector via TA-cloning and subcloned in-frame with the hexahistidine (His6) encoding sequence of a modified pET-28a expression vector via its NdeI-XhoI polylinker site. The truncated protein Man5A-TM2 originally named ManA-SLH-CBD was cloned as described in a previous study (Cann et al., J Bacteriol, 181:1643, 1999). Expression of each of the resulting gene constructs yielded fusion proteins containing an N-terminal polyhistidine tag sequence to facilitate affinity purification via metal chelate chromatography. The resulting plasmid constructs pET46-Man5B, pET28a-Man5A-TM1, and pET-28a-Man5A-TM2 were sequenced to confirm the integrity of the cloned genes (W. M. Keck Center for Comparative and Functional Genomics at the University of Illinois at Urbana-Champaign).
The plasmid constructs were then introduced into E. coli BL-21 CodonPlus (DE3) RIL competent cells by heat shock, and grown overnight in lysogeny broth (LB) agar medium supplemented with ampicillin (100 μg/mL) and chloramphenicol (50 μg/mL) at 37° C. After 12 h, single colonies were selected and used to inoculate fresh LB (10 mL) supplemented with the antibiotics above at the same concentrations, followed by culturing with aeration for 8 h at 37° C. The pre-cultures were then inoculated into fresh LB (1 L) supplemented with ampicillin and chloramphenicol and the cultures were incubated at 37° C. with vigorous aeration (225 rpm/min). The cultures were grown to an optical density of 0.3 at 600 nm, and the temperature was shifted to 16° C. and gene expression was induced by the addition of 0.1 mM isopropyl β-D-thiogalactopyranoside (IPTG). […]

[2] = substrate: OC[C@H]1O[C@@H](O[C@H]2[C@H](O)[C@H](O)[C@H](O[C@H]3[C@H](O)[C@H](O)[C@H](O[C@H]4[C@H](O)[C@H](O)[C@H](O[C@H]5[C@H](O)[C@H](O)C(O)O[C@@H]5CO)O[C@@H]4CO)O[C@@H]3CO)O[C@@H]2CO)[C@@H](O)[C@@H](O)[C@@H]1O; experiment: Catalytic efficiency with oligosaccharides, HPAEC (Man5B); conditions: other: Man5B 3 nM, oligosaccharide 30 μM, citrate buffer 50 mM, pH 5.5, 5 min, triplicate
Protocol: as §1, §2
(§3) The plasmid constructs were then introduced into E. coli BL-21 CodonPlus (DE3) RIL competent cells by heat shock, and grown overnight in lysogeny broth (LB) agar medium supplemented with ampicillin (100 μg/mL) and chloramphenicol (50 μg/mL) at 37° C. After 12 h, single colonies were selected and used to inoculate fresh LB (10 mL) supplemented with the antibiotics above at the same concentrations, followed by culturing with aeration for 8 h at 37° C. […]

[3] = substrate: OC[C@H]1O[C@H](OC[C@H]2OC(O)[C@@H](O)[C@@H](O)[C@@H]2O[C@@H]2O[C@H](CO)[C@@H](O[C@@H]3O[C@H](CO)[C@@H](O)[C@H](O)[C@@H]3O)[C@H](O)[C@@H]2O)[C@H](O)[C@@H](O)[C@H]1O; experiment: as above; conditions: other: Man5B 3 nM, oligosaccharide 30 μM, citrate buffer 50 mM, pH 5.5, 5 min, triplicate
Protocol: as §1, §2, §3

[4] = substrate: OC[C@H]1O[C@@H](O[C@H]2[C@H](O)[C@H](O)C(O)O[C@@H]2CO)[C@@H](O)[C@@H](O)[C@@H]1O; experiment: as above; conditions: other: Man5B 3 nM, oligosaccharide 30 μM, citrate buffer 50 mM, pH 5.5, 5 min, triplicate
Protocol: as §1, §2, §3

[5] = substrate: OC[C@H]1O[C@H](OC[C@H]2OC(O)[C@@H](O)[C@@H](O)[C@@H]2O[C@@H]2O[C@H](CO)[C@@H](O)[C@H](O)[C@@H]2O)[C@H](O)[C@@H](O)[C@H]1O; experiment: as above; conditions: other: Man5B 3 nM, oligosaccharide 30 μM, citrate buffer 50 mM, pH 5.5, 5 min, triplicate
Protocol: as §1, §2, §3

[6] = substrate: OC[C@H]1O[C@@H](O[C@H]2[C@H](O)[C@@H](O)[C@H](O[C@H]3[C@H](O)[C@@H](O)[C@H](O[C@H]4[C@H](O)[C@@H](O)[C@H](O[C@H]5[C@H](O)[C@@H](O)C(O)O[C@@H]5CO)O[C@@H]4CO)O[C@@H]3CO)O[C@@H]2CO)[C@H](O)[C@@H](O)[C@@H]1O; experiment: as above; conditions: other: Man5B 3 nM, oligosaccharide 30 μM, citrate buffer 50 mM, pH 5.5, 5 min, triplicate
Protocol: as §1, §2, §3

B1: Caldanaerobius polysaccharolyticus endo-β-mannanase Man5A truncation mutant Man5A-TM2, SEQ ID NO: 29 (Caldanaerobius polysaccharolyticus) (protein)
chain: AGTSGDGRFHVVGNKIVDPDGKDFIIKGVNIQGYRSWEKRSVLQDVHLIADVWKFNTVRLNCFIGQNNWGEGTGANNDIDAIIKAFTAKKVVVEIDLHDTTGYPPLSNPPPAPGQPSLDQAIAWFKELAAKYKDNPYVWFNTMNEPGSSTAPLDPQWKVANEEIIKAIRSTGADNIIVVDGWSYANEGIEQNTPTVDEKRSAVLTYGQDLLNADSAKNTIFAFHNYNEGDIQKKVEDYIDRANAKGLYVFMEEYGKDYSDAAKEGVKSGLQAVMNKGAGRIYWNWDGYDLYDLTSGTGRGSGWEINKTDGSKPTNLSWVGDKIWDDNHGITPTFDDQNPKVDLALERLIANNNGFKAGDKVQFTTFLRNSGDLPIGKDSKVVVKFYVDGVQLGDPVEISGGIAVGQRIPVTSPELTVSKTDFTVKAVIDSSSTYADGAEDAVIENNWIEAAFNSTAPSSGYELVVTGIKITPDTVKEGDYVQAQVTVANQGPEATPVTNIIGWFYVNGYYYTLDDAAKSCAEQDNVTLKPGESITLSTKVKYRAAAPFNFSFVLENLYADDQNQSNNSITVNVPVK
Q: How did the kcat/Km [1] turn out when B1 was run?
A: 12 ± 2 mM⁻¹ s⁻¹

B2: Caldanaerobius polysaccharolyticus endo-β-mannanase Man5B, wild type, SEQ ID NO: 31 (Caldanaerobius polysaccharolyticus) (protein)
chain: MKKYGFNFQWMYVWEEGREPEPPDKKALDFLAETGFNFVRIPVDYRFWTRNFDYFNPDKKVFEYIDLYLRECSARNIHMCLNLHRAPGYCINRNDIERDNLWLDKRAQDGFVYQWELFAKRYKGVSSKFLSFDLVNEPPNIGQYGLTRENHASLIIRTVEAIRKIDPDREIVIDGLGGGNIAMPELAHLGVVHSGRGYQPMALTHYQASWWDGHKGLPEPYYPDLLWQGKVWNKDTLREYYKPWRDLQQKGVNVHIGEFGCFNKTSNDVAIRWFEDVLSLYKEFEWGYSLWNFKGPFGIVEHGRPGAKYEYYRGFKVDRELLDLLVENRV
Q: With B2 as the protein, how does the kcat/Km [2] read?
A: (2.2 ± 0.3) × 10^2 mM^−1 s^−1

Q: And the kcat/Km [3]?
A: 30 ± 7 mM⁻¹ s⁻¹

Q: What about the kcat/Km [4] of the same protein?
A: 0.23 ± 0.03 mM⁻¹ s⁻¹

Q: And the kcat/Km [5]?
A: 1.5 ± 0.2 mM⁻¹ s⁻¹

Q: What about the kcat/Km [6] of the same protein?
A: 17 ± 3 mM⁻¹ s⁻¹
